From US10766952B2, “Methods for reducing migraine frequency in a subject in need thereof” (Beth Israel Deaconess Medical Center, Inc., priority 2017, dated 2020)
Changes are numbered by the printed parent chain. Names may count otherwise.

T1: human α-CGRP (Homo sapiens, UniProt P06881)
T1 construct: 1-37 (WT); purchased; host or cells: synthetic peptide
T1 sequence (P06881 83-119 limits assumed): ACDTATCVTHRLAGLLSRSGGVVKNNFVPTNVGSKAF

T2: rat α-CGRP (Rattus norvegicus, UniProt P01256)
T2 construct: rat α (1-37); host or cells: synthetic peptide
T2 sequence (P01256 83-119 limits assumed): T1 sequence (P06881 83-119 limits assumed) with A1S, D3N, N25D, K35E

B1: M70: G1 variant: L1 R28N,T30G; L2 L56I; H2 E54K,A57S; HC-FW3 L99T,A100V (antibody, V domains shown)
VH: EVQLVESGGGLVQPGGSLRLSCAASGFTFSNYWISWVRQAPGKGLEWVAEIRSKSDSSATHYAEAVKGRFTISRDNAKNSLYLQMNSLRAEDTAVYYCTVYFDYGLAIQNYWGQGTLVTVSS
VL: EIVLTQSPATLSLSPGERATLSCKASKNVGTYVSWYQQKPGQAPRLLIYGASNRYIGIPARFSGSGSGTDFTLTISSLEPEDFAVYYCSQSYNYPYTFGQGTKLEIK
B2: M72: G1 variant: L1 R28N,T30G; L2 L56S; H2 E54K; HC-FW3 L99T,A100V (antibody, V domains shown)
VH: B1 VH with S57A
VL: B1 VL with I56S
B3: M78: G1 variant: L1 R28N,T30S; L2 G50A,L56T; H2 E54K,A57N,S58T; HC-FW3 L99T,A100V (antibody, V domains shown)
VH: B1 VH with S57N, S58T
VL: B1 VL with G30S, G50A, I56T
B4: M76: G1 variant: L1 R28N,T30S; L2 G50A,L56T; H2 A57G; HC-FW3 L99T,A100V (antibody, V domains shown)
VH: B1 VH with K54E, S57G
VL: B1 VL with G30S, G50A, I56T
B5: M83: G1 variant: L1 R28N,T30V; L2 A51H,L56T; H2 E54K,A57N,S58M,H61F; HC-FW3 L991 (printed),A100V (antibody, V domains shown)
VH: B1 VH with S57N, S58M, H61F
VL: B1 VL with G30V, A51H, I56T
B6: M25: G1 variant: L1 R28N; HC-FW3 L99T,A100V (antibody, V domains shown)
VH: B1 VH with K54E, S57A
VL: B1 VL with G30T, I56L
B7: M73: G1 variant: L1 R28N,T30G; L2 L56S; H2 E54K,A57N,S58Y,E64D; HC-FW3 L99T,A100V (antibody, V domains shown)
VH: B1 VH with S57N, S58Y, E64D
VL: B1 VL with I56S
B8: M82: G1 variant: L1 R28N,T30V; L2 A51H,L56T; H2 A57N; HC-FW3 L991 (printed),A100V (antibody, V domains shown)
VH: B1 VH with K54E, S57N
VL: B1 VL with G30V, A51H, I56T
B9: M75: G1 variant: L1 R28N,T30G; L2 L56S; H2 E54K,A57V; HC-FW3 L99T,A100V (antibody, V domains shown)
VH: B1 VH with S57V
VL: B1 VL with I56S
B10: M26: G1 variant: L1 R28N; H2 A57G; HC-FW3 L99T,A100V (antibody, V domains shown)
VH: B1 VH with K54E, S57G
VL: B1 VL with G30T, I56L
B11: M80: G1 variant: L1 R28N,T30S; L2 L56I; H2 E54K,A57N,S58V; HC-FW3 L99T,A100V (antibody, V domains shown)
VH: B1 VH with S57N, S58V
VL: B1 VL with G30S
B12: M74: G1 variant: L1 R28N,T30G; L2 L56S; H2 E54K,A57S; HC-FW3 L99T,A100V (antibody, V domains shown)
VH: B1 VH
VL: B1 VL with I56S
B13: M27: G1 variant: L1 R28N,T30A; HC-FW3 L99T,A100V (antibody, V domains shown)
VH: B1 VH with K54E, S57A
VL: B1 VL with G30A, I56L
B14: M81: G1 variant: L1 R28N,T30S; L2 L56S; H2 E54K,A57N,S58E; HC-FW3 L99T,A100V (antibody, V domains shown)
VH: B1 VH with S57N, S58E
VL: B1 VL with G30S, I56S
B15: M20: G1 variant: L1 R28W; HC-FW3 L99R,A100L (antibody, V domains shown)
VH: B1 VH with K54E, S57A, T99R, V100L
VL: B1 VL with N28W, G30T, I56L
B16: M77: G1 variant: L1 R28N,T30S; L2 G50A,L56T; H2 E54K,A57D; HC-FW3 L99T,A100V (antibody, V domains shown)
VH: B1 VH with S57D
VL: B1 VL with G30S, G50A, I56T
B17: M22: G1 variant: L1 R28W; HC-FW3 L99T (antibody, V domains shown)
VH: B1 VH with K54E, S57A, V100A
VL: B1 VL with N28W, G30T, I56L
B18: M23: G1 variant: L1 R28G; HC-FW3 L99T,A100V (antibody, V domains shown)
VH: B1 VH with K54E, S57A
VL: B1 VL with N28G, G30T, I56L
B19: M84: G1 variant: L1 R28N,T30V; L2 A51H,L56T; H2 E54N,A57N; HC-FW3 L991 (printed),A100V (antibody, V domains shown)
VH: B1 VH with K54N, S57N
VL: B1 VL with G30V, A51H, I56T
B20: M21: G1 variant: L1 R28W; HC-FW3 L99S (antibody, V domains shown)
VH: B1 VH with K54E, S57A, T99S, V100A
VL: B1 VL with N28W, G30T, I56L
B21: M79: G1 variant: L1 R28N,T30S; L2 G50A,L56T; H2 E54K,A57P; HC-FW3 L99T,A100V (antibody, V domains shown)
VH: B1 VH with S57P
VL: B1 VL with G30S, G50A, I56T
B22: M71: G1 variant: L1 R28N,T30G; L2 L56I; H2 E54K,A57Y; HC-FW3 L99T,A100V (antibody, V domains shown)
VH: B1 VH with S57Y
VL: B1 VL
B23: M24: G1 variant: L1 R28L; HC-FW3 L99T,A100V (antibody, V domains shown)
VH: B1 VH with K54E, S57A
VL: B1 VL with N28L, G30T, I56L

What follows are molecules tested against T1, human α-CGRP (assay: Biacore affinity of antibody G1 Fab and variants to human α-CGRP). Details: 37° C., Fab, screening mode unless underlined.
Type: binding
Experimental: (§1) Biacore assay for affinity determination. […] All Biacore assays were conducted in HBS-EP running buffer (10 mM HEPES pH 7.4, 150 mM NaCl, 3 mM EDTA, 0.005% v/v polysorbate P20). CGRP surfaces were prepared by diluting the N-biotinylated CGRP to a concentration of less than 0.001 mg/mL into HBS-EP buffer and injecting it across the SA sensor chip using variable contact times. Low capacity surfaces, corresponding to capture levels <50 response units (RU) were used for high-resolution kinetic studies, whereas high capacity surfaces (about 800 RU of captured CGRP) were used for concentration studies, screening, and solution affinity determinations. […] Samples were typically injected for lminute at 100 μL/min and dissociation times of at least 10 minutes were allowed. After each binding cycle, surfaces were regenerated with 25 mM NaOH in 25% v/v ethanol, which was tolerated over hundreds of cycles. An entire titration series (typically generated in duplicate) was fit globally to a 1:1 Langmuir binding model using the BlAevaluation program. This returned a unique pair of association and dissociation kinetic rate constants (respectively, kon and koff) for each binding interaction, whose ratio gave the equilibrium dissociation constant (KD=koff/[…]).
(§2) High-resolution analysis of binding interactions with extremely slow offrates. […] The protocol described above was used with the following modifications. The association rate constant (kon) was determined by injecting a 2-fold titration series (in duplicate) spanning 550 nM-1 nM for 30 seconds at 100 μL/min and allowing only a 30 second dissociation phase. The dissociation rate constant (koff) was determined by injecting three concentrations (high, medium, and low) of the same titration series in duplicate for 30 seconds and allowing a 2-hour dissociation phase. The affinity (KD) of each interaction was obtained by combining the kon and koff values obtained in both types of experiments, as shown in Table 4.
(§3) The binding affinities of Fab fragments were determined by Biacore by flowing them across CGRPs on a SA chip.

Row | α-human koff | Molecule
1 | 0.000559 s⁻¹ | B1
2 | 0.0004 s⁻¹ | B2
3 | 0.00131 s⁻¹ | B3
4 | 0.000364 s⁻¹ | B4
5 | 0.000933 s⁻¹ | B5
6 | 0.00014 s⁻¹ | B6
7 | 0.000255 s⁻¹ | B7
8 | 0.000877 s⁻¹ | B8
9 | 0.00116 s⁻¹ | B9
10 | 0.000148 s⁻¹ | B10
11 | 0.00209 s⁻¹ | B11
12 | 0.000597 s⁻¹ | B12
13 | 0.000357 s⁻¹ | B13
14 | 0.00049 s⁻¹ | B14
15 | 0.000136 s⁻¹ | B15
16 | 0.000477 s⁻¹ | B16
17 | 0.000116 s⁻¹ | B17
18 | 0.00013 s⁻¹ | B18
19 | 0.00108 s⁻¹ | B19
20 | 0.000142 s⁻¹ | B20
21 | 0.00129 s⁻¹ | B21
22 | 0.00128 s⁻¹ | B22
23 | 0.000148 s⁻¹ | B23

What follows are molecules tested against T2, rat α-CGRP (assay: Biacore affinity of antibody G1 Fab and variants to rat α-CGRP). Details: 37° C., Fab, screening mode unless underlined.
Type: binding
Experimental: as §1, §2, §3

Row | α-rat koff | Molecule
24 | 0.00607 s⁻¹ | B1
25 | 0.00395 s⁻¹ | B2
26 | 0.167 s⁻¹ | B3
27 | 0.00116 s⁻¹ | B4
28 | No binding | B5
29 | 0.0014 s⁻¹ | B6
30 | 0.003 s⁻¹ | B7
31 | 0.00699 s⁻¹ | B8
32 | 0.0187 s⁻¹ | B9
33 | 0.000924 s⁻¹ | B10
34 | 0.0993 s⁻¹ | B11
35 | 0.00603 s⁻¹ | B12
36 | 0.00341 s⁻¹ | B13
37 | 0.00429 s⁻¹ | B14
38 | 0.00144 s⁻¹ | B15
39 | 0.0143 s⁻¹ | B16
40 | 0.0011 s⁻¹ | B17
41 | 0.000799 s⁻¹ | B18
42 | 0.0176 s⁻¹ | B19
43 | 0.000695 s⁻¹ | B20
44 | 0.19 s⁻¹ | B21
45 | 0.00212 s⁻¹ | B22
46 | 0.00104 s⁻¹ | B23
